Measured values as given in patent publication US20110135573A1, “METALLOPROTEINASE 9 AND METALLOPROTEINASE 2 BINDING PROTEINS” (DYAX CORP., priority 2009, published 2011).
Blank lines part the entries; values can stand above or below the molecule they belong to.

What was measured:
MMP-9 [1] = molecular target: T1, MMP-9 (Homo sapiens, UniProt P14780); experiment: Enzyme inhibition assay (single point inhibition, IC50/Ki,app), substrate M-2350; type: biochemical; design: Human MMP-9 catalytic domain (BIOMOL, SE-244); purchased BIOMOL SE-244; conditions: light chain shuffled antibodies
Protocol: (§1) 343 unique sFabs from the anti-MMP-9/-2 M237-D02 affinity maturation campaign were discovered by phage display, produced in small scale (6 mL cultures in deep 24-well plates) and screened to select inhibitors with sub-nanomolar potency against the human enzymes and at least single-digit nanomolar potency toward the mouse orthologues. […] Isolates which appeared potent against both human and mouse MMP-2 were then subjected to IC50 analysis against hMMP-9. Sub-nanomolar inhibitors of hMMP-9 were further tested by IC50 analysis against mMMP-9 and h/m MMP-2, if sufficient small-scale sFab material was available. Thirteen potential h/m MMP-9/-2 sFab inhibitors were then produced in medium scale (250 mL cultures in flasks) and retested for h/m MMP-9 and h/m MMP-2 inhibition. Five potential lead candidates were reformatted as IgGs and retested in enzyme inhibition assays.
Human MMP-9 (Biomol #SE-244), mouse MMP-9 (R&D Systems #909-MM-010), human MMP-2 (Biomol #SE-237) and mouse MMP-2 (R&D Systems #924-MP-010) were tested at final concentrations of 1 nM, 0.25-0.4 nM, 2.5 nM and 0.2 nM, respectively. Target enzymes were incubated with inhibitor for two hours at 30° C. in reaction buffer (50 mM Tris-HCl pH 7.5, 150 mM NaCl, 5 mM CaCl2, 0.05% Brij-35) in a total volume of 90 μL using a white 96 well plate (Costar). Reactions contained 5 μL of small-scale sFab stock solution (average concentration of 500 nM) for single point inhibition analysis or a concentration series of sFab/IgG for IC50 Ki,app determinations. […] Reactions were initiated by the addition of 10 μL of a 10× concentrated stock of substrate, Mca-Lys-Pro-Leu-Gly-Leu-Dap(Dnp)-Ala-Arg-NH2, (Bachem M-2350), at final concentration of 10 μM and monitored at 30° C. in a Molecular Devices' Gemini fluorescence plate reader. […] Kinetic data were acquired by the increase in fluorescence, and initial rates for each condition were plotted against the total inhibitor concentration. […]
Target sequence in this assay (P14780 107-444 limits assumed): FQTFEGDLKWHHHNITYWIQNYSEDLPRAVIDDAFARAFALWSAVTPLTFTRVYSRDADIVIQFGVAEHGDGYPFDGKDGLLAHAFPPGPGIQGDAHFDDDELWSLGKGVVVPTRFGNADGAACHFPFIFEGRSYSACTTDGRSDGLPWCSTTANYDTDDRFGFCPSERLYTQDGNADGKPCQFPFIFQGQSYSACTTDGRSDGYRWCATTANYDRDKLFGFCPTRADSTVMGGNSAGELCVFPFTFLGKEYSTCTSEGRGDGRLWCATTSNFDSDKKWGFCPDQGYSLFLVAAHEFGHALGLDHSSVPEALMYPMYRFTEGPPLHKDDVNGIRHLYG

Mouse MMP-9 = molecular target: T2, Mouse MMP-9 (Mus musculus, UniProt P41245); experiment: as above; type: biochemical; conditions: light chain shuffled antibodies
T2 construct: purchased R&D Systems 909-MM (909-MM-010)
Protocol: as §1
(§2) Human MMP-9 (Biomol #SE-244), mouse MMP-9 (R&D Systems #909-MM-010), human MMP-2 (Biomol #SE-237) and mouse MMP-2 (R&D Systems #924-MP-010) were tested at final concentrations of 1 nM, 0.25-0.4 nM, 2.5 nM and 0.2 nM, respectively. Target enzymes were incubated with inhibitor for two hours at 30° C. in reaction buffer (50 mM Tris-HCl pH 7.5, 150 mM NaCl, 5 mM CaCl2, 0.05% Brij-35) in a total volume of 90 μL using a white 96 well plate (Costar). Reactions contained 5 μL of small-scale sFab stock solution (average concentration of 500 nM) for single point inhibition analysis or a concentration series of sFab/IgG for IC50 Ki,app determinations. Commercially available anti-MMP-9 antibodies (Millipore mAb 13415 and R&D Systems polyclonal IgG #AB911) were tested by IC50 analyses using 100 nM and 500 nM as the highest inhibitor concentrations, respectively. An anti-MMP-2 antibody (R&D Systems polyclonal IgG #AF902) was similarly tested with 200 nM as the highest inhibitor concentration. Reactions were initiated by the addition of 10 μL of a 10× concentrated stock of substrate, Mca-Lys-Pro-Leu-Gly-Leu-Dap(Dnp)-Ala-Arg-NH2, (Bachem M-2350), at final concentration of 10 μM and monitored at 30° C. in a Molecular Devices' Gemini fluorescence plate reader. The excitation and emission wavelengths were set at 328 nm and 393 nm, respectively. Kinetic data were acquired by the increase in fluorescence, and initial rates for each condition were plotted against the total inhibitor concentration. Reactions were performed in duplicates and all data replicates were plotted in a single graph and fit to the following equation^1:
(§3) Where A=initial rate observed at each inhibitor concentration; Ao=initial rate observed in the absence of inhibitor; Ainh=initial rate observed for the enzyme inhibitor complex; Inh=concentration of inhibitor; E=total enzyme concentration (treated as a floated parameter); and Ki,app=apparent equilibrium inhibition constant.

human MMP-2 = molecular target: T3, human MMP-2 (Homo sapiens, UniProt P08253); experiment: as above; type: biochemical; conditions: light chain shuffled antibodies
T3 construct: purchased Biomol SE-237
Protocol: as §1, §2, §3

mouse MMP-2 = molecular target: T4, mouse MMP-2 (Mus musculus, UniProt P33434); experiment: as above; type: biochemical; conditions: for inhibition of mouse MMP-2 (in words): light chain shuffled antibodies
T4 construct: purchased R&D Systems 924-MP-010
Protocol: as §1, §2, §3

MMP-9 [2] = molecular target: T1, MMP-9; experiment: Binding of non-inhibiting Fabs to MMP-9 (apparent KD, dissociation t1/2, TIMP-1 competition); conditions: Fab
Target sequence in this assay (P14780 94-707): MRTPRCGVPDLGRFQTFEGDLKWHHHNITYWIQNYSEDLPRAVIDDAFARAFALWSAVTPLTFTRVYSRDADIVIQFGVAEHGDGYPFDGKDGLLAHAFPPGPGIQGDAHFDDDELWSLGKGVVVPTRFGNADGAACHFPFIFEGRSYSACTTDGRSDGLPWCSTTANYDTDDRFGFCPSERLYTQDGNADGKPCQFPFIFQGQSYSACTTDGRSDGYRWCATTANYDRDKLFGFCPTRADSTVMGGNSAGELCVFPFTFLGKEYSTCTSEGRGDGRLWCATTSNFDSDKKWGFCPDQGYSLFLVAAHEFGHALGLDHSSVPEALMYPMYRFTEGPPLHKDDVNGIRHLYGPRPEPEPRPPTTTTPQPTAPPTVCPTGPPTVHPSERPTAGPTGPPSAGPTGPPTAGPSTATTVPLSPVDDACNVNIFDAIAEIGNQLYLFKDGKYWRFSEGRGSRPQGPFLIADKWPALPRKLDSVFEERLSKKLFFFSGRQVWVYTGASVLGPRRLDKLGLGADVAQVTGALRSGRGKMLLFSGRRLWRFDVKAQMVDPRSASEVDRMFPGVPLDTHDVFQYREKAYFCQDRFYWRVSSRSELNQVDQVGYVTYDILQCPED

MMP-9 [3] = molecular target: T1, MMP-9; experiment: Initial screen of sFabs/IgG1s for inhibition of MMP-9 at 1 μM; type: biochemical
Protocol: After sequencing analysis, the phage display were converted into sFabs and then into IgG1s. Their ability to inhibit MMP-9 and other MMPs (1, 3, 7, 8, 9, 10, 12, 13, 14) was determined by usual means. Compounds were initially screened at 1 μM against MMP-9 and those compounds that inhibited MMP-9 >80% were subjected to additional screens against purified recombinant human MMP-2 (APMA activated enzyme) and other MMPs. For these additional screens, an IC50 value was determined. Ki values and specificities of the inhibitors were determined as described below.
Target sequence in this assay (P14780 94-707): as above

T4 sequence (P33434 110-662): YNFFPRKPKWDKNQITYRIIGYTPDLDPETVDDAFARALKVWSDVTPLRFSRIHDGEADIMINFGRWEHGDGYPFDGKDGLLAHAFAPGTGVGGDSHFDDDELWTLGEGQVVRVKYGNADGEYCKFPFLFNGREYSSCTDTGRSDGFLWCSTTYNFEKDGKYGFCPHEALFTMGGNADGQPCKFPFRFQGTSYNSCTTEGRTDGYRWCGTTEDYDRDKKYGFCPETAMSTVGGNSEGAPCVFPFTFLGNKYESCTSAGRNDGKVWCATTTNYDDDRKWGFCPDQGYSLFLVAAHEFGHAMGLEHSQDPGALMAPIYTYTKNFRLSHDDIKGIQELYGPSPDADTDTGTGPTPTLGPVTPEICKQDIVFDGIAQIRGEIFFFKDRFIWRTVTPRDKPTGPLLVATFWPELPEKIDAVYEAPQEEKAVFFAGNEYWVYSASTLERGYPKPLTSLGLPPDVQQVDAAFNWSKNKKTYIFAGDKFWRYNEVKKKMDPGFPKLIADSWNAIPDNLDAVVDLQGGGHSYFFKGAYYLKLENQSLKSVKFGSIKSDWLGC
T2 sequence (P41245 108-730): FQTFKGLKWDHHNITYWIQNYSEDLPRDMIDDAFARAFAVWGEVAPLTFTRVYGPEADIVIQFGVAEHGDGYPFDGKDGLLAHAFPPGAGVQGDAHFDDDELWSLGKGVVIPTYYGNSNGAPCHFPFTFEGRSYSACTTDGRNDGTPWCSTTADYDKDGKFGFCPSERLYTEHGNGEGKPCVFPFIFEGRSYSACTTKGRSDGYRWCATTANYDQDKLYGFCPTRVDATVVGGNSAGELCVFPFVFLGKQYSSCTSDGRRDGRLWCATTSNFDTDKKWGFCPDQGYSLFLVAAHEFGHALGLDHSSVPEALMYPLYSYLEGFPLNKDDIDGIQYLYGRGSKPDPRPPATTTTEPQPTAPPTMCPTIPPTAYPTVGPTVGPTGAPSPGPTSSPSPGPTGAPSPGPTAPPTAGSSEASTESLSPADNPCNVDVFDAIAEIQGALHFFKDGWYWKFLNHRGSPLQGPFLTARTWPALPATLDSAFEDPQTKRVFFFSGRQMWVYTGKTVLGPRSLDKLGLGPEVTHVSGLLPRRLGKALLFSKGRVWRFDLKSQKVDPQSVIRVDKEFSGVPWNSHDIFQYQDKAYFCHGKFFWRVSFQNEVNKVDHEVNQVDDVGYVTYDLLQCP
T3 sequence (P08253 110-446 limits assumed): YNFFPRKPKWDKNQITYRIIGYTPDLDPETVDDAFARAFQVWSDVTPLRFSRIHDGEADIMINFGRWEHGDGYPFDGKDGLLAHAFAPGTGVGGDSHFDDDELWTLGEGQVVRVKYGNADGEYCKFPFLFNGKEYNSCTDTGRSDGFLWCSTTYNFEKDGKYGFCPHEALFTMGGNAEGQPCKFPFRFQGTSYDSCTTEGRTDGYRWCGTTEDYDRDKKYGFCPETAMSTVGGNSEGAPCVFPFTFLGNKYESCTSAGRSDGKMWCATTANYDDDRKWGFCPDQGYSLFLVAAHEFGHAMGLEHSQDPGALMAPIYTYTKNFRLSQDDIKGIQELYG

- inhibition of human MMP-9 (in words) (MMP-9 [1]): bind and inhibit
- inhibition of mouse MMP-9 (in words) (Mouse MMP-9): bind and inhibit
- inhibition of human MMP-2 (in words) (human MMP-2): do not inhibit
- inhibition of mouse MMP-2 (in words) (mouse MMP-2): do not inhibit
B1: M0279-A03: MMP-9 specific antibody from light chain shuffling of M237-D02, sFab (antibody, V domains shown)
VH: EVQLLESGGGLVQPGGSLRLSCAASGFTFSQYPMWWVRQAPGKGLEWVSYIVPSGGRTYYADSVKGRFTISRDNSKNTLYLQMNSLRAEDTAVYYCAKDRAYGDYVGWNGFDYWGQGTLVTVSS
VL: QDIQMTQSPATLSVSPGERVTLSCKASHSISRNLAWYQQKPGQAPRLLIFGASTRATGIPARFSGSGSGTEFTLTISSLEAEDFAVYYCQQRRNWPVTFGPGTKLDFK

- inhibition of human MMP-9 (in words) (MMP-9 [1]): bind and inhibit
- inhibition of mouse MMP-9 (in words) (Mouse MMP-9): bind and inhibit
- inhibition of human MMP-2 (in words) (human MMP-2): do not inhibit
- inhibition of mouse MMP-2 (in words) (mouse MMP-2): do not inhibit
B4: M0288-C08: MMP-9 specific antibody from light chain shuffling of M237-D02, sFab (antibody, V domains shown)
VH: EVQLLESGGGLVQPGGSLRLSCAASGFTFSQYPMWWVRQAPGKGLEWVSYIVPSGGRTYYADSVKGRFTISRDNSKNTLYLQMNSLRAEDTAVYYCAKDRAYGDYVGWNGFDYWGQGTLVTVSS
VL: QDIQMTQSPGTLSVSPGERVTLSCRASQSVSSYLAWYQQKPGQAPRLLIYGASTRVTGIPARFSGSGSGTEFTLTISSLQSEDFAVYYCQQRSSWPITFGQGTRLEIK

- Ki (mouse MMP-2; medium-scale sFab, Table 10): 2.2 nM
- Ki (mouse MMP-2; small-scale sFab, Table 10): 2.2 nM
B6: M0307-F04: affinity matured variant of M237-D02, sFab (antibody, V domains shown)
VH: EVQLLESGGGLVQPGGSLRLSCAASGFTFSLYDMWWVRQAPGKGLEWVSVIYSSGGYTGYADSVKGRFTISRDNSKNTLYLQMNSLRAEDTAVYYCAKDRAYGDYVGWNGFDYWGQGTLVTVSS
VL: QDIQMTQSPATLSLSPGERATLSCRASQSISSFLAWYQQKPGQAPRLLIYDASYRATGIPARFSGSGSGTDFTLTISSLEPEDYAVYYCQQRGNWPITFGQGTRLEIK

- Ki (mouse MMP-2; IgG, Table 12): 3 nM
B7: X0106-F05: germlined, optimized version of M0307-F04, IgG1 (antibody, V domains shown)
VH: EVQLLESGGGLVQPGGSLRLSCAASGFTFSLYDMWWVRQAPGKGLEWVSVIYSSGGYTGYADSVKGRFTISRDNSKNTLYLQMNSLRAEDTAVYYCAKDRAYGDYVGWNGFDYWGQGTLVTVSS
VL: EIVLTQSPATLSLSPGERATLSCRASQSISSFLAWYQQKPGQAPRLLIYDASYRATGIPARFSGSGSGTDFTLTISSLEPEDFAVYYCQQRGNWPITFGQGTRLEIK

- Ki (mouse MMP-2; medium-scale sFab, Table 10): 3.7 nM
- Ki (mouse MMP-2; small-scale sFab, Table 10): 3.7 nM
B8: M0276-F11: affinity matured variant of M237-D02, sFab (antibody, V domains shown)
VH: EVQLLESGGGLVQPGGSLRLSCAASGFTFSWYDMWWVRQAPGKGLEWVSVIYSSGGPTFYADSVKGRFTISRDNSKNTLYLQMNSLRAEDTAVYYCAKDRAYGDYVGWNGFDYWGQGTLVTVSS
VL: QDIQMTQSPATLSLSPGERATLSCRASQSISSFLAWYQQKPGQAPRLLIYDASYRATGIPARFSGSGSGTDFTLTISSLEPEDYAVYYCQQRGNWPITFGQGTRLEIK

- Ki (mouse MMP-2; medium-scale sFab, Table 10): 25 nM
- Ki (mouse MMP-2; small-scale sFab, Table 10): 25 nM
B9: M0301-D12: affinity matured variant of M237-D02, sFab (antibody, V domains shown)
VH: EVQLLESGGGLVQPGGSLRLSCAASGFTFSMYDMWWVRQAPGKGLEWVSVIYSSGGYTSYADSVKGRFTISRDNSKNTLYLQMNSLRAEDTAVYYCAKDRAYGDYVGWNGFDYWGQGTLVTVSS
VL: QDIQMTQSPATLSLSPGERATLSCRASQSISSFLAWYQQKPGQAPRLLIYDASYRATGIPARFSGSGSGTDFTLTISSLEPEDYAVYYCQQRGNWPITFGQGTRLEIK

Further lines, the molecule ahead of its results:

B2: X0106-A01: germlined, optimized version of M0256-D11, IgG1 (antibody, V domains shown)
VH: EVQLLESGGGLVQPGGSLRLSCAASGFTFSHYDMWWVRQAPGKGLEWVSVIYSSGGPTFYADSVKGRFTISRDNSKNTLYLQMNSLRAEDTAVYYCAKDRAYGDYVGWNGFDYWGQGTLVTVSS
VL: EIVLTQSPATLSLSPGERATLSCRASQSISSFLAWYQQKPGQAPRLLIYDASYRATGIPARFSGSGSGTDFTLTISSLEPEDFAVYYCQQRGNWPITFGQGTRLEIK
- Ki (mouse MMP-2; IgG, Table 12): 4.7 nM

B3: X0106-B02: germlined, optimized version of M0276-F11, IgG1 (antibody, V domains shown)
VH: EVQLLESGGGLVQPGGSLRLSCAASGFTFSWYDMWWVRQAPGKGLEWVSVIYSSGGPTFYADSVKGRFTISRDNSKNTLYLQMNSLRAEDTAVYYCAKDRAYGDYVGWNGFDYWGQGTLVTVSS
VL: EIVLTQSPATLSLSPGERATLSCRASQSISSFLAWYQQKPGQAPRLLIYDASYRATGIPARFSGSGSGTDFTLTISSLEPEDFAVYYCQQRGNWPITFGQGTRLEIK
- Ki (mouse MMP-2; IgG, Table 12): 4.2 nM

B5: X0106-C03: germlined, optimized version of M0274-G08, IgG1 (antibody, V domains shown)
VH: EVQLLESGGGLVQPGGSLRLSCAASGFTFSVYDMWWVRQAPGKGLEWVSVIYPSGGATYYADSVKGRFTISRDNSKNTLYLQMNSLRAEDTAVYYCAKDRAYGDYVGWNGFDYWGQGTLVTVSS
VL: EIVLTQSPATLSLSPGERATLSCRASQSISSFLAWYQQKPGQAPRLLIYDASYRATGIPARFSGSGSGTDFTLTISSLEPEDFAVYYCQQRGNWPITFGQGTRLEIK
- Ki (mouse MMP-2; IgG, Table 12): 3.2 nM

B10: M0076-D03: Fab that binds MMP-9 but does not inhibit (antibody, V domains shown)
VH: EVQLLESGGGLVQPGGSLRLSCAASGFTFSLYRMNWVRQAPGKGLEWVSYIGSSGGATAYADSVKGRFTISRDNSKNTLYLQMNSLRAEDTAVYYCARGAWYLDSWGQGTLVTVSS
VL: QDIQMTQSPSSLSASVGDRVTITCRASQGIRNDLDWYQQKPGTAPKRLIYSASNLQSGVPSRFSGSGSGTEFTLTISNLQPEDLATYFCLQHNSFPLTFGQGTKVEIK
- competition with TIMP-1 (MMP-9 [2]): does not compete with TIMP-1
- dissociation t1/2 (MMP-9 [2]): 33 min
- inhibition of the catalytic activity of MMP-9 (MMP-9 [3]): Neither antibody inhibits

B11: X0106-E04: germlined, optimized version of M0275-D03, IgG1 (antibody, V domains shown)
VH: EVQLLESGGGLVQPGGSLRLSCAASGFTFSQYDMWWVRQAPGKGLEWVSVIYPSGTTFYADSVKGRFTISRDNSKNTLYLQMNSLRAEDTAVYYCAKDRAYGDYVGWNGFDYWGQGTLVTVSS
VL: EIVLTQSPATLSLSPGERATLSCRASQSISSFLAWYQQKPGQAPRLLIYDASYRATGIPARFSGSGSGTDFTLTISSLEPEDFAVYYCQQRGNWPITFGQGTRLEIK
- Ki (mouse MMP-2; IgG, Table 12): 3.9 nM
